Results taken from patent US20200165313A1, “EGF(A) ANALOGUES, PREPARATION, FORMULATIONS AND USES THEREOF” (Novo Nordisk A/S, priority 2017, published 2020).

Target: hPCSK9 (Sino Biologicals, China) (human) (UniProt Q8NBP7)
Assay: cell-based or functional assay

hepatic LDL-R expression, Percentage of baseline (%), mouse hPCSK9 challenge, inhibitor 22 nmol/kg: 157%
Substance: Alirocumab (antibody)
